The text below walks through data of patent US20220332804A1 (CSL INNOVATION, published 2022).

Holding throughout (assay): SPR, KD relative to WT C2;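 also: biacore SPR at 37 °C, anti-C2 mAbs captured via immobilised goat anti-human IgG, C2 alanine or serine surface mutants as analytes, 1:1 model fitted, double-referenced sensograms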
For one assay, the target named is T1, human C2 P704A (human, UniProt P06681 21-752).
T1 sequence: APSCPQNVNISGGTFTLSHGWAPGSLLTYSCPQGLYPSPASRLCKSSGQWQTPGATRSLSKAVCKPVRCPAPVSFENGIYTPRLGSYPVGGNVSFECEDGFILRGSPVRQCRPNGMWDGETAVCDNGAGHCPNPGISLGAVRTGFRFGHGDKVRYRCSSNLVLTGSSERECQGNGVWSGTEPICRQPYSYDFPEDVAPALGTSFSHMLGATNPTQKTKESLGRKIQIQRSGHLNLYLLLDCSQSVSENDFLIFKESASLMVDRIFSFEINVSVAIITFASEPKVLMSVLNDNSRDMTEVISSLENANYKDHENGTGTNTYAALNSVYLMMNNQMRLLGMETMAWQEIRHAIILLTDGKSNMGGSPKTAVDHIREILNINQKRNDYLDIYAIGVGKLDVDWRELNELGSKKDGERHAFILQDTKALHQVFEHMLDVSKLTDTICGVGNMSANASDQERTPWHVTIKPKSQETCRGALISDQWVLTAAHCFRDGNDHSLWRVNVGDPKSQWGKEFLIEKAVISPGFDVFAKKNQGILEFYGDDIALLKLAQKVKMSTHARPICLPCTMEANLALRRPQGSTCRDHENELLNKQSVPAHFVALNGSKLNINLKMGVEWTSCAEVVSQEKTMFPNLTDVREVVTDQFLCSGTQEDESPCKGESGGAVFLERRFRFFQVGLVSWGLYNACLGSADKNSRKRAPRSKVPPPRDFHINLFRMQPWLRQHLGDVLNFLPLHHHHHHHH

A further assay deals with T2, human C2 E476A (human, UniProt P06681 21-752).
T2 sequence: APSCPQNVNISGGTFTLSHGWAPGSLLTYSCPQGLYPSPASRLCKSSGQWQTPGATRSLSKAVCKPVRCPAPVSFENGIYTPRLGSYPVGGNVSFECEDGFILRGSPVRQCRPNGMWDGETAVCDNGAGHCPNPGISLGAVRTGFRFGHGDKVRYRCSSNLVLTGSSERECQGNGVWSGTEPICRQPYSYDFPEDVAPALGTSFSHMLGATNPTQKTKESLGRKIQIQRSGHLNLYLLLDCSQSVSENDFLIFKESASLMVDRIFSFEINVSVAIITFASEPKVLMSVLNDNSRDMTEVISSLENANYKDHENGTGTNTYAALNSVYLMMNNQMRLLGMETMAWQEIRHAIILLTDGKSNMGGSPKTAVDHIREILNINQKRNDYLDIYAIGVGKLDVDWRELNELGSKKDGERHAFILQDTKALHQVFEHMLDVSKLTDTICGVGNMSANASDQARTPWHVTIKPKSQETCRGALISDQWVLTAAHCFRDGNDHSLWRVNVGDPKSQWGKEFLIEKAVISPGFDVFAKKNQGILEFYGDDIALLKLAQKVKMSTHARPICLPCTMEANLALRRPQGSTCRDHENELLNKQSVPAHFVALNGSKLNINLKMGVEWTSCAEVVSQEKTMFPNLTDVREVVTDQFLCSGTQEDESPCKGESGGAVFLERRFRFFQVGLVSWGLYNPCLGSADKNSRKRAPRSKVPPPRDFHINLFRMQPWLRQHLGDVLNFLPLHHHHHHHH

Another assay has as its target T3, human C2 A436S (human, UniProt P06681 21-752).
T3 sequence: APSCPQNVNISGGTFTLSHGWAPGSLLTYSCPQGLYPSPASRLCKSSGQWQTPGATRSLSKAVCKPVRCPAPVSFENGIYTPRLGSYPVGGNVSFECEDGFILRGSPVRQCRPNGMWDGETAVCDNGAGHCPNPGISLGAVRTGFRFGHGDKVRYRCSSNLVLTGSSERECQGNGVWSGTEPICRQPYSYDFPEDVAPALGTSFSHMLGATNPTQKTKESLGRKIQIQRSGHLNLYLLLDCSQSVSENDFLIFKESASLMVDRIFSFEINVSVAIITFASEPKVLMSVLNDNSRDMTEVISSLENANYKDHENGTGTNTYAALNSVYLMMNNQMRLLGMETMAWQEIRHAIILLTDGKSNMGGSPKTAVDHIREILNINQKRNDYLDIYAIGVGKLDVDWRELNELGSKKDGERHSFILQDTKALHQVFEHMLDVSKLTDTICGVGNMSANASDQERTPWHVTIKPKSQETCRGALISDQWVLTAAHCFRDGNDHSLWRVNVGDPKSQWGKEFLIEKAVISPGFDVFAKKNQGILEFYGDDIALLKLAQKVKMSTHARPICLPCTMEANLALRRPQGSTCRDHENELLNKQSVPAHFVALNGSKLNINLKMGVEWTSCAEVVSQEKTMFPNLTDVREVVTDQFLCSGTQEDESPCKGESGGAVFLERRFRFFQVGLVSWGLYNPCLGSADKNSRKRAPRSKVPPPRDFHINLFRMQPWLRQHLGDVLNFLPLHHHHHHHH

The next assay concerns the target T4, human C2 K715A (human, UniProt P06681 21-752).
T4 sequence: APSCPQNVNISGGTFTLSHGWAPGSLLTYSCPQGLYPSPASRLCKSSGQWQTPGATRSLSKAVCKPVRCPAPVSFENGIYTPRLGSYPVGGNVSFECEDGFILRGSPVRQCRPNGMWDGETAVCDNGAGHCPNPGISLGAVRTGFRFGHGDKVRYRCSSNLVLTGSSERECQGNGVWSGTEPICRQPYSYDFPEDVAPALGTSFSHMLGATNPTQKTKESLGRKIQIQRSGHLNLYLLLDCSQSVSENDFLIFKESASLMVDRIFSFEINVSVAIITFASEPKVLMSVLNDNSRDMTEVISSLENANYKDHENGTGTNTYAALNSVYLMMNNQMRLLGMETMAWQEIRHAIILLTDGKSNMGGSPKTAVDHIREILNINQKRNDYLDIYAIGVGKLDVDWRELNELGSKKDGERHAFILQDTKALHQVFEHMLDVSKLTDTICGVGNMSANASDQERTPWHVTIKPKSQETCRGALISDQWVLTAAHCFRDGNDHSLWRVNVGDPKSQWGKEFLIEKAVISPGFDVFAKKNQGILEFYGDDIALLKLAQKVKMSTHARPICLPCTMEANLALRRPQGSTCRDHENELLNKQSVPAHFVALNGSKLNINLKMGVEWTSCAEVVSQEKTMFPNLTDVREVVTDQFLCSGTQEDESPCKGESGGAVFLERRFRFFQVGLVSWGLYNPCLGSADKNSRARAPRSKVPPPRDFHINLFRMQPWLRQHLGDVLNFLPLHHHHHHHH

B1: RF16-226 (antibody, human IgG4 S228P, lambda)
heavy: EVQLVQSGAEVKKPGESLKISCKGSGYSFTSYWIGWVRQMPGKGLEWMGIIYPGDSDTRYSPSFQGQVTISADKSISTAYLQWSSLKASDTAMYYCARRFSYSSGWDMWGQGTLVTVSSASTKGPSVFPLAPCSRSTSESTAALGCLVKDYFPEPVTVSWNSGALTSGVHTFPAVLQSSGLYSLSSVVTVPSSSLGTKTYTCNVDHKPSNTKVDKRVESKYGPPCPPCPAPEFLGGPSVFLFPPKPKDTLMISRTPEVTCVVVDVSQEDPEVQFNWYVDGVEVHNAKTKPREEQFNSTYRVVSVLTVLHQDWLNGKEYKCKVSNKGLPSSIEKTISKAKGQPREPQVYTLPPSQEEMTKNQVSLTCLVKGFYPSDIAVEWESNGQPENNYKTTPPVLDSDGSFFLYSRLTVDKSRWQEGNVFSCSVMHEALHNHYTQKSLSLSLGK
light: SYELTQPPSVSVSPGQTARITCSGDALTSKYVAWYQQKSGLAPLLVIYEDTRRPSGIPAKFSGSSSGSVATLTISGAHGDDEADYYCYSTDASGHQRVFGGGTKLTVLSQPKAAPSVTLFPPSSEELQANKATLVCLISDFYPGAVTVAWKADGSPVKAGVETTKPSKQSNNKYAASSYLSLTPEQWKSHRSYSCQVTHEGSTVEKTVAPTECS
notes: pH-dependent anti-C2 antibody from a phage display library; also called WT
For B1, the Fold diff with human C2 P704A turned out to be 12 fold; with human C2 E476A, 2 fold; with human C2 A436S, 1 fold; with human C2 K715A, 2 fold.
